The text below walks through data of article doi:10.1101/243402v1.

Substrate in this data set: O=P(O)(O)OC[C@@H](O)[C@@H](O)[C@H](O)[C@H](O)CO
Description: purified protein. The following applies: 100 mM Tris-HCl.

B1: SjaM1Pase2 (Saccharina japonica) (protein)
chain: MEQATANKDISILFDFDGTIGDTETPAMEVAFWELAPYLPDTTPDKLDNLMPEFVRDNAGKAFEFMVETVDEERKAAGMDSVEEMFAAKSEPQNMLDAVDPHRKKFGLKSFAELRAPEGGEAATLLIQQKTETVDALSKIAQPCNGVREVLAALTAATVPFCISTTSPKPRVPASITACGLDEYFPPDKVHSGESDFDPPRFKPNPSVYLKAAETEGKEPVNCIAVEDSGSGVGSASNAGVGLTVGYVGASHIPEYKKDTHAEMLMAGGRAENGKGAEIVISDMKDLLKIIDFFAGAKTAGKLAPFDFPTAMVASMQQPVWVHGKKA
For the protein B1, the Michaelis constant (Km) is 0.02 mM.

What is called Km is the concentration of substrate that gives half-maximal velocity.
